Measured values from the supplement of paper PMC10567573.

B1: BTBD10 (parent)
chain: DRKLHSRPRKLYKHSSTSSRIAKG
B2: CDC25A (parent)
chain: KKFRTKSRTWAGEKSKREMYSRLK

Variants of: B1
Assay: protein stability index of a GFP-peptide fusion (GPS, HEK-293T) (PSI 1-6); higher = more stable
Details: c terminus: a fixed tail appended
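Further: lentivirally expressed fusions sorted by FACS into six bins by GFP to DsRed ratio, PSI derived from sequencing read proportions per bin multiplied by bin number.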

| Variant | protein stability index |
| --- | --- |
| DMKLHSRPRKLYKHSSTSSRIAKG [R2M] | 3.89 |
| DPKLHSRPRKLYKHSSTSSRIAKG [R2P] | 4.02 |
| DCKLHSRPRKLYKHSSTSSRIAKG [R2C] | 3.62 |
| DLKLHSRPRKLYKHSSTSSRIAKG [R2L] | 2.7 |
| DRKLHSSPRKLYKHSSTSSRIAKG [R7S] | 4.21 |
| DRKLHSHPRKLYKHSSTSSRIAKG [R7H] | 3.79 |
| DRKLHSVPRKLYKHSSTSSRIAKG [R7V] | 3.28 |
| DRKLHSTPRKLYKHSSTSSRIAKG [R7T] | 4.31 |
| DRKLHSMPRKLYKHSSTSSRIAKG [R7M] | 3.84 |
| DRKLHSDPRKLYKHSSTSSRIAKG [R7D] | 4.54 |
| DRKLHSWPRKLYKHSSTSSRIAKG [R7W] | 2.97 |
| DRKLHSFPRKLYKHSSTSSRIAKG [R7F] | 2.59 |
| DRKLHSKPRKLYKHSSTSSRIAKG [R7K] | 3.33 |
| DRKLHSEPRKLYKHSSTSSRIAKG [R7E] | 4.41 |
| DRKLHSIPRKLYKHSSTSSRIAKG [R7I] | 3.31 |
| DRKLHSCPRKLYKHSSTSSRIAKG [R7C] | 3.76 |
| DRKLHSGPRKLYKHSSTSSRIAKG [R7G] | 4.33 |
| DRKLHSYPRKLYKHSSTSSRIAKG [R7Y] | 3.83 |
| DRKLHSAPRKLYKHSSTSSRIAKG [R7A] | 3.98 |
| DRKLHSQPRKLYKHSSTSSRIAKG [R7Q] | 4.4 |
| DRKLHSPPRKLYKHSSTSSRIAKG [R7P] | 4.33 |

| Variant | protein stability index |
| --- | --- |
| DRKLHSLPRKLYKHSSTSSRIAKG [R7L] | 2.84 |
| DRKLHSNPRKLYKHSSTSSRIAKG [R7N] | 4.1 |
| DRKLPSRPRKLYKHSSTSSRIAKG [H5P] | 4.5 |
| DRKLVSRPRKLYKHSSTSSRIAKG [H5V] | 3.02 |
| DRKLASRPRKLYKHSSTSSRIAKG [H5A] | 4.22 |
| DRKLTSRPRKLYKHSSTSSRIAKG [H5T] | 4.17 |
| DRKLRSRPRKLYKHSSTSSRIAKG [H5R] | 3.9 |
| DRKLLSRPRKLYKHSSTSSRIAKG [H5L] | 3.72 |
| DRKLISRPRKLYKHSSTSSRIAKG [H5I] | 3.74 |
| DRKLNSRPRKLYKHSSTSSRIAKG [H5N] | 5.44 |
| DRKLWSRPRKLYKHSSTSSRIAKG [H5W] | 3.16 |
| DRKLSSRPRKLYKHSSTSSRIAKG [H5S] | 4.34 |
| DRKLESRPRKLYKHSSTSSRIAKG [H5E] | 4.09 |
| DRKLYSRPRKLYKHSSTSSRIAKG [H5Y] | 3.02 |
| DRKLKSRPRKLYKHSSTSSRIAKG [H5K] | 4.09 |
| DRKLCSRPRKLYKHSSTSSRIAKG [H5C] | 3.9 |
| DRKLMSRPRKLYKHSSTSSRIAKG [H5M] | 3.43 |
| DRKLDSRPRKLYKHSSTSSRIAKG [H5D] | 3.99 |
| DRKLGSRPRKLYKHSSTSSRIAKG [H5G] | 2.82 |
| DRKLQSRPRKLYKHSSTSSRIAKG [H5Q] | 3.69 |
| DRKLFSRPRKLYKHSSTSSRIAKG [H5F] | 4.43 |

| Variant | protein stability index |
| --- | --- |
| DRKNHSRPRKLYKHSSTSSRIAKG [L4N] | 3.77 |
| DRKSHSRPRKLYKHSSTSSRIAKG [L4S] | 4.71 |
| DRKKHSRPRKLYKHSSTSSRIAKG [L4K] | 4.28 |
| DRKWHSRPRKLYKHSSTSSRIAKG [L4W] | 3.5 |
| DRKVHSRPRKLYKHSSTSSRIAKG [L4V] | 3.71 |
| DRKQHSRPRKLYKHSSTSSRIAKG [L4Q] | 4.08 |
| DRKYHSRPRKLYKHSSTSSRIAKG [L4Y] | 3.8 |
| DRKEHSRPRKLYKHSSTSSRIAKG [L4E] | 4.28 |
| DRKIHSRPRKLYKHSSTSSRIAKG [L4I] | 3.62 |
| DRKTHSRPRKLYKHSSTSSRIAKG [L4T] | 4.3 |
| DRKMHSRPRKLYKHSSTSSRIAKG [L4M] | 4.23 |
| DRKDHSRPRKLYKHSSTSSRIAKG [L4D] | 4.49 |
| DRKHHSRPRKLYKHSSTSSRIAKG [L4H] | 4.09 |
| DRKGHSRPRKLYKHSSTSSRIAKG [L4G] | 3.72 |
| DRKFHSRPRKLYKHSSTSSRIAKG [L4F] | 3.92 |
| DRKRHSRPRKLYKHSSTSSRIAKG [L4R] | 3.9 |
| DRKAHSRPRKLYKHSSTSSRIAKG [L4A] | 4.42 |
| DRKCHSRPRKLYKHSSTSSRIAKG [L4C] | 3.9 |
| DRKPHSRPRKLYKHSSTSSRIAKG [L4P] | 4.11 |

Variants of: B2
Assay: as above
Details: c terminus: a fixed tail appended

| Variant | protein stability index |
| --- | --- |
| KKFRTKSRTWAGEKSKREMYSRQK [L23Q] | 3.74 |
| KKFRTKSRTWAGEKSKREMYSRAK [L23A] | 3.49 |
| KKFRTKSRTWAGEKSKREMYSRNK [L23N] | 4.01 |
| KKFRTKSRTWAGEKSKREMYSRHK [L23H] | 3.39 |
| KKFRTKSRTWAGEKSKREMYSRMK [L23M] | 2.73 |
| KKFRTKSRTWAGEKSKREMYSRWK [L23W] | 2.41 |
| KKFRTKSRTWAGEKSKREMYSRIK [L23I] | 3.33 |
| KKFRTKSRTWAGEKSKREMYSRPK [L23P] | 3.94 |
| KKFRTKSRTWAGEKSKREMYSRYK [L23Y] | 2.57 |
| KKFRTKSRTWAGEKSKREMYSRCK [L23C] | 2.87 |
| KKFRTKSRTWAGEKSKREMYSRRK [L23R] | 4.46 |
| KKFRTKSRTWAGEKSKREMYSRTK [L23T] | 3.61 |
| KKFRTKSRTWAGEKSKREMYSRVK [L23V] | 3.65 |
| KKFRTKSRTWAGEKSKREMYSRKK [L23K] | 3.84 |
| KKFRTKSRTWAGEKSKREMYSRSK [L23S] | 3.92 |
| KKFRTKSRTWAGEKSKREMYSYLK [R22Y] | 2.03 |
| KKFRTKSRTWAGEKSKREMYSRLT [K24T] | 2.94 |

| Variant | protein stability index |
| --- | --- |
| KKFRTKSRTWAGEKSKREMYSRLD [K24D] | 3.13 |
| KKFRTKSRTWAGEKSKREMYSRLF [K24F] | 2.06 |
| KKFRTKSRTWAGEKSKREMYSRLE [K24E] | 3.27 |
| KKFRTKSRTWAGEKSKREMYSRLP [K24P] | 3.49 |
| KKFRTKSRTWAGEKSKREMYSRLY [K24Y] | 1.37 |
| KKFRTKSRTWAGEKSKREMYSRLS [K24S] | 3.16 |
| KKFRTKSRTWAGEKSKREMYSRLG [K24G] | 2.52 |
| KKFRTKSRTWAGEKSKREMYSRLA [K24A] | 2.37 |
| KKFRTKSRTWAGEKSKREMYSRLL [K24L] | 2.31 |
| KKFRTKSRTWAGEKSKREMYSRLH [K24H] | 2.62 |
| KKFRTKSRTWAGEKSKREMYSRLI [K24I] | 2.32 |
| KKFRTKSRTWAGEKSKREMYSRLR [K24R] | 2.91 |
| KKFRTKSRTWAGEKSKREMYSRLQ [K24Q] | 2.58 |
| KKFRTKSRTWAGEKSKREMYSRLC [K24C] | 2.08 |
| KKFRTKSRTWAGEKSKREMYSRLN [K24N] | 3.32 |
| KKFRTKSRTWAGEKSKREMYSRLM [K24M] | 2.37 |
